# Columns and labels:
# [1] = target: T1, SARS-CoV-2 receptor-binding domain fused to hIgG1 Fc (SARS-CoV-2 (Wuhan/Victoria), UniProt P0DTC2 330-532); experiment: SPR, trimer analyte, RBD ligand
# [2] = target: T2, Spike protein on live SARS-CoV-2 Victoria strain (SARS-CoV-2 (Victoria), UniProt P0DTC2 14-1273); experiment: cell-based or functional assay
# [3] = target: T3, SARS-CoV-2 receptor-binding domain (amino acids 330-532), prototypical Wuhan/Victoria (SARS-CoV-2 (Wuhan/Victoria), UniProt P0DTC2 330-532); experiment: SPR, VHH analyte over immobilised RBD
# [4] = target: T2, Spike protein on live SARS-CoV-2 …; experiment: cell-based or functional assay; remark: listed apart in the source
# [5] = target: T3, SARS-CoV-2 receptor-binding domain …; experiment: SPR, VHH analyte, biotinylated RBD ligand
# [6] = target: T1, SARS-CoV-2 receptor-binding domain …; experiment: SPR, VHH analyte over immobilised RBD
# [7] = target: T1, SARS-CoV-2 receptor-binding domain …; experiment: SPR, VHH analyte, RBD-Fc ligand
# [8] = target: T3, SARS-CoV-2 receptor-binding domain …; experiment: SPR, RBD analyte, VHH_H6-Fc ligand
# [9] = target: T3, SARS-CoV-2 receptor-binding domain …; experiment: SPR, RBD binding kinetics
# [10] = target: T3, SARS-CoV-2 receptor-binding domain …; experiment: SPR
binder,measurement,setting,value
"C5 trimer (VHH, also called trimeric C5 nanobody; C5-6GS-C5-6GS-C5) QVQLVESGGGSVQAGGSLTLSCVASGVTLGRHAIGWFRQAPGKERERVSCIRTFDGITSYVESTKGRFTISSNNAMNTVYLQMNSLKPEDTAVYFCALGVTAACSDNPYFWGQGTQVTVSSGSGSGSQVQLVESGGGSVQAGGSLTLSCVASGVTLGRHAIGWFRQAPGKERERVSCIRTFDGITSYVESTKGRFTISSNNAMNTVYLQMNSLKPEDTAVYFCALGVTAACSDNPYFWGQGTQVTVSSGSGSGSQVQLVESGGGSVQAGGSLTLSCVASGVTLGRHAIGWFRQAPGKERERVSCIRTFDGITSYVESTKGRFTISSNNAMNTVYLQMNSLKPEDTAVYFCALGVTAACSDNPYFWGQGTQVTVSS",Kd,[1],0.018 nM
same,T1/2,[1],1.53 h
same,"ND 50 MN assay, live virus",[2],0.02 nM
H3 trimer (VHH) QVQLVESGGGLVKTGGSLRLSCAASGRTFSTYSMGWFRQAPGKEREFVAGMRWTGSSTFYSDSVKGRFTVSRNNAKDTVYLHMNSLKPEDTAVYYCAITTIVRAYYTEYTEADFGSWGQGTQVTVSSGAVLAPQVQLVESGGGLVKTGGSLRLSCAASGRTFSTYSMGWFRQAPGKEREFVAGMRWTGSSTFYSDSVKGRFTVSRNNAKDTVYLHMNSLKPEDTAVYYCAITTIVRAYYTEYTEADFGSWGQGTQVTVSSGSGSGSQVQLVESGGGLVKTGGSLRLSCAASGRTFSTYSMGWFRQAPGKEREFVAGMRWTGSSTFYSDSVKGRFTVSRNNAKDTVYLHMNSLKPEDTAVYYCAITTIVRAYYTEYTEADFGSWGQGTQVTVSS,Kd,[1],0.0003 nM
same,T1/2,[1],5.82 h
same,koff,[1],3.3e-05 s⁻¹
same,kon,[1],1.2e+08 M⁻¹ s⁻¹
same,"ND 50 MN assay, live virus",[2],0.4 nM
A8 trimer (bispecific antibody) QVQLVESGGGLVQAGGSLRLSCAASGGTFSTAAMGWFRQAPGEERECVASIGWRGVRTWYADSVKGRFTISRDNPQNTVYLQMNNLKSGDTAVYYCAASVGNYGLPWAHFEYDFWGQGIQVTVSSGSGSGSQVQLVESGGGLVQAGGSLRLSCAASGGTFSTAAMGWFRQAPGEERECVASIGWRGVRTWYADSVKGRFTISRDNPQNTVYLQMNNLKSGDTAVYYCAASVGNYGLPWAHFEYDFWGQGIQVTVSSGSGSGSQVQLVESGGGLVQAGGSLRLSCAASGGTFSTAAMGWFRQAPGEERECVASIGWRGVRTWYADSVKGRFTISRDNPQNTVYLQMNNLKSGDTAVYYCAASVGNYGLPWAHFEYDFWGQGTQVTVSSKHHHHHH,Kd,[1],0.005 nM
same,T1/2,[1],4.63 h
same,"ND 50 MN assay, live virus",[2],0.09 nM
"C5 (VHH, also called VHH C5) VHH: QVQLVESGGGSVQAGGSLTLSCVASGVTLGRHAIGWFRQAPGKERERVSCIRTFDGITSYVESTKGRFTISSNNAMNTVYLQMNSLKPEDTAVYFCALGVTAACSDNPYFWGQGTQVTVSS",Kd,[3],0.099 nM
same,T1/2,[3],0.2 h
same,"IC50, neutralisation of SARS-CoV2, micro-titre neutralisation assay",[4],32 nM
same,Kd,[5],0.099 nM
same,T1/2,[5],0.2 h
C1 trimer (VHH) QVQLVESGGGLVQPGGSLRLSCAASGFTNDFYSIAWFRQAPGKEREGVSWLSVSDNTPTYVDSVKDRFTISRHNANNTVYLQMNMLKPEDTAIYYCAAGRFAGRDTWPSSYDYWGQGTQVTVSSGSGSGSQVQLVESGGGLVQPGGSLRLSCAASGFTNDFYSIAWFRQAPGKEREGVSWLSVSDNTPTYVDSVKDRFTISRHNANNTVYLQMNMLKPEDTAIYYCAAGRFAGRDTWPSSYDYWGQGTQVTVSSGSGSGSQVQLVESGGGLVQPGGSLRLSCAASGFTNDFYSIAWFRQAPGKEREGVSWLSVSDNTPTYVDSVKDRFTISRHNANNTVYLQMNMLKPEDTAIYYCAAGRFAGRDTWPSSYDYWGQGTQVTVSS,Kd,[1],0.053 nM
same,T1/2,[1],4.03 h
same,koff,[1],4.8e-05 s⁻¹
same,kon,[1],900000 M⁻¹ s⁻¹
same,"ND 50 MN assay, live virus",[2],4.9 nM
"B12 (VHH, also called VHH B12) VHH: QVQLVESGGGFVQPGGSLRLSCAVSGGTFSTYGMGWFRQAPGKEREIVAAIRRSGSTYYADSVRGRFTISRDNAKNSVLLQMNSLKPEDTAVYYCAARRAGREYEYWGQGTQVTVSS",Kd,[6],0.077 nM
same,T1/2,[6],0.7 h
same,koff,[6],0.00027 s⁻¹
same,kon,[6],3.6e+06 M⁻¹ s⁻¹
VHH_H6 (VHH) VHH: QVQLVESGGGLVQPGGSLTLSCVASESSLAPYRVAWFRQAPGKEREGVSCISRDAHPTSTYYTASVKGRFTMSRDNAKNTVYLQMNSLKPSDTAVYYCATDLGGYCSDSNYPRAWWGQGTQVTVSS,Kd,[7],0.472 nM
same,T1/2,[7],0.517 h
VHH_H6-Fc (Fc fusion) QVQLVESGGGLVQPGGSLTLSCVASESSLAPYRVAWFRQAPGKEREGVSCISRDAHPTSTYYTASVKGRFTMSRDNAKNTVYLQMNSLKPSDTAVYYCATDLGGYCSDSNYPRAWWGQGTQVTVSS,Kd,[8],0.261 nM
"F2 (VHH, also called VHH F2) VHH: QVQLVESGGGLVQAGGSLRLACIASGRTFHSYVMAWFRQAPGKEREFVAAISWSSTPTYYGESVKGRFTISRDNAKNTVYLQMNRLKPEDTAVYFCAADRGESYYYTRPTEYEFWGQGTQVTVSS",Kd,[3],0.04 nM
same,Kd,[5],0.04 nM
"C1-SUMO-H3-Fc (Fc fusion, also called C1-GSGSGS-SUMO-GSGSGS-H3) QVQLVESGGGLVQPGGSLRLSCAASGFTNDFYSIAWFRQAPGKEREGVSWLSVSDNTPTYVDSVKDRFTISRHNANNTVYLQMNMLKPEDTAIYYCAAGRFAGRDTWPSSYDYWGQGTQVTVSSGSGSGSDSEVNQEAKPEVKPEVKPETHINLKVSDGSSEIFFKIKKTTPLRRLMEAFAKRQGKEMDSLRFLYDGIRIQADQTPEDLDMEDNDIIEAHREQIGSGSGSQVQLVESGGGLVKTGGSLRLSCAASGRTFSTYSMGWFRQAPGKEREFVAGMRWTGSSTFYSDSVKGRFTVSRNNAKDTVYLHMNSLKPEDTAVYYCAITTIVRAYYTEYTEADFGSWGQGTQVTVS",Kd,[9],0.011 nM
same,T1/2,[9],4.1 h
same,koff,[9],4.7e-05 s⁻¹
same,kon,[9],4.3e+06 M⁻¹ s⁻¹
same,fold increase in affinity on combining the VHHs,[10],~40 fold
"C1-SUMO-H11-H4-Fc (Fc fusion, also called C1-GSGSGS-SUMO-GSGSGS-H11-H4) QVQLVESGGGLVQPGGSLRLSCAASGFTNDFYSIAWFRQAPGKEREGVSWLSVSDNTPTYVDSVKDRFTISRHNANNTVYLQMNMLKPEDTAIYYCAAGRFAGRDTWPSSYDYWGQGTQVTVSSGSGSGSDSEVNQEAKPEVKPEVKPETHINLKVSDGSSEIFFKIKKTTPLRRLMEAFAKRQGKEMDSLRFLYDGIRIQADQTPEDLDMEDNDIIEAHREQIGSGSGSQVQLVESGGGLMQAGGSLRLSCAVSGRTFSTAAMGWFRQAPGKEREFVAAIRWSGGSAYYADSVKGRFTISRDKAKNTVYLQMNSLKYEDTAVYYCAQTHYVSYLLSDYATWPYDYWGQGTQVTVSS",Kd,[9],0.013 nM
same,T1/2,[9],2.8 h
same,koff,[9],6.8e-05 s⁻¹
same,kon,[9],5.1e+06 M⁻¹ s⁻¹
same,fold increase in affinity on combining the VHHs,[10],~40 fold
"C1-SUMO-C5-Fc (Fc fusion, also called C1-GSGSGS-SUMO-GSGSGS-C5) QVQLVESGGGLVQPGGSLRLSCAASGFTNDFYSIAWFRQAPGKEREGVSWLSVSDNTPTYVDSVKDRFTISRHNANNTVYLQMNMLKPEDTAIYYCAAGRFAGRDTWPSSYDYWGQGTQVTVSSGSGSGSDSEVNQEAKPEVKPEVKPETHINLKVSDGSSEIFFKIKKTTPLRRLMEAFAKRQGKEMDSLRFLYDGIRIQADQTPEDLDMEDNDIIEAHREQIGSGSGSQVQLVESGGGSVQAGGSLTLSCVASGVTLGRHAIGWFRQAPGKERERVSCIRTFDGITSYVESTKGRFTISSNNAMNTVYLQMNSLKPEDTAVYFCALGVTAACSDNPYFWGQGTQVTVSS",Kd,[9],0.00163 nM
same,T1/2,[9],246 h
same,koff,[9],4.9e-05 s⁻¹
same,kon,[9],3e+07 M⁻¹ s⁻¹
same,fold increase in affinity on combining the VHHs,[10],~240 fold
"F2-SUMO-C5-Fc (Fc fusion, also called F2-GSGSGS-SUMO-GSGSGS-C5) QVQLVESGGGLVQAGGSLRLACIASGRTFHSYVMAWFRQAPGKEREFVAAISWSSTPTYYGESVKGRFTISRDNAKNTVYLQMNRLKPEDTAVYFCAADRGESYYYTRPTEYEFWGQGTQVTVSSGSGSGSDSEVNQEAKPEVKPEVKPETHINLKVSDGSSEIFFKIKKTTPLRRLMEAFAKRQGKEMDSLRFLYDGIRIQADQTPEDLDMEDNDIIEAHREQIGSGSGSQVQLVESGGGSVQAGGSLTLSCVASGVTLGRHAIGWFRQAPGKERERVSCIRTFDGITSYVESTKGRFTISSNNAMNTVYLQMNSLKPEDTAVYFCALGVTAACSDNPYFWGQGTQVTVSS",Kd,[9],0.00075 nM
same,T1/2,[9],11 h
same,koff,[9],1.7e-05 s⁻¹
same,kon,[9],2.3e+07 M⁻¹ s⁻¹
same,fold increase in affinity on combining the VHHs,[10],~85 fold
H3 (VHH) VHH: QVQLVESGGGLVKTGGSLRLSCAASGRTFSTYSMGWFRQAPGKEREFVAGMRWTGSSTFYSDSVKGRFTVSRNNAKDTVYLHMNSLKPEDTAVYYCAITTIVRAYYTEYTEADFGSWGQGTQVTVSS,Kd,[3],0.025 nM
same,T1/2,[3],0.583 h
same,Kd,[5],0.025 nM
same,T1/2,[5],0.583 h
C1 (VHH) VHH: QVQLVESGGGLVQPGGSLRLSCAASGFTNDFYSIAWFRQAPGKEREGVSWLSVSDNTPTYVDSVKDRFTISRHNANNTVYLQMNMLKPEDTAIYYCAAGRFAGRDTWPSSYDYWGQGTQVTVSS,Kd,[3],0.615 nM
same,Kd,[5],0.615 nM
